Laboratory results published in patent US20140087995A1 (published 2014).
Numbered stars: 1 amine (or outer) side, 2 acyl side, 3 side chain; on linkers, the order of the positions; unused ones are H or OH. Bridge positions count the residues as written; N and C are the ends. Side chains are listed from the residue outwards. Ends that are not written are not given here. * marks the point of attachment. C20 diacid = O=C(O)CCCCCCCCCCCCCCCCCCC(=O)*; γGlu = O=C(O)[C@H](CCC(=O)[*:2])N[*:1]

T1: human calcitonin receptor (human, UniProt P30988 25-474)
T1 construct: whole, on cells; Assay used cell membranes, not intact cells; also called hCTR; hCT
T1 sequence (looked up): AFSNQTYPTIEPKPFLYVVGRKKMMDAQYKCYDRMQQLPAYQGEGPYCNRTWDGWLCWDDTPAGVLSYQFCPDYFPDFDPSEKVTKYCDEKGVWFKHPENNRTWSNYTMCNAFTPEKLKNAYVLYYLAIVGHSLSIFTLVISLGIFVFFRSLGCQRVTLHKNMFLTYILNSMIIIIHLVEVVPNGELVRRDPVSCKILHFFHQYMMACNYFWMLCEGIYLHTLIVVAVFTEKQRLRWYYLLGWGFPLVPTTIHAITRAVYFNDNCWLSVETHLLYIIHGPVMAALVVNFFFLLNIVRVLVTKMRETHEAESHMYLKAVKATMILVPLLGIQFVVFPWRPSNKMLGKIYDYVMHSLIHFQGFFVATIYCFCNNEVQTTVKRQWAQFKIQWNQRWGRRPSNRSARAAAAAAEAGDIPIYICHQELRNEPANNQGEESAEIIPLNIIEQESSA

T2: human amylin receptor (amylin 3(a) receptor: human calcitonin receptor with RAMP-3) (human, UniProt P30988 25-474; O60896 24-148)
T2 construct: whole, on cells; Assay used cell membranes of the Amylin 3(a)/CRE-luc BHK cells, not intact cells; also called hAmylin-R; hAmylinR
T2 sequence (looked up) 1: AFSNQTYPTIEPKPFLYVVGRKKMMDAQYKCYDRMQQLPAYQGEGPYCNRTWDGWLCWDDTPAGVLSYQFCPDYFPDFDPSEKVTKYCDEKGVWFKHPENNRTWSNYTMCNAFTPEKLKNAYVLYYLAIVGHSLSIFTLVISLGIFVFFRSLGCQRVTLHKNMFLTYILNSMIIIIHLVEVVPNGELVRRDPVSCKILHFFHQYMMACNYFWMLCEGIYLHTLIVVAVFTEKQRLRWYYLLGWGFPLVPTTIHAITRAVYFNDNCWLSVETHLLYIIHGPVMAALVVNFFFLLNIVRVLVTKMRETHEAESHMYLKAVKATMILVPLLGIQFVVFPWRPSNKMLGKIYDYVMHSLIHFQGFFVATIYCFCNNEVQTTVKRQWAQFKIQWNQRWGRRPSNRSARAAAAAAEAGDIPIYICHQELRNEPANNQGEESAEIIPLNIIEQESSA
T2 sequence (looked up) 2: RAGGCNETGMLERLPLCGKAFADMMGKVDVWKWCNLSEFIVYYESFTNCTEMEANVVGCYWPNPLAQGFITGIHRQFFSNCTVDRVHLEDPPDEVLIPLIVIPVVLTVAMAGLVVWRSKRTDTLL


Legend:
[1] = target: T1, human calcitonin receptor; assay: ratio IC50 hCTR / IC50 hAmylin-R (reference: human amylin receptor), SPA competition assays
Outline: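 Scintillation proximity competition binding on cell membranes at 35 ng/μL with SPA beads, in 50 mM Hepes pH 7.4, 1 mM CaCl2, 5 mM MgCl₂, 0.1% OA, 0.02% Tween20. Incubated 120 min at 25° C with shaking. IC₅₀ from one-site competition fit.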

[2] = target: T2, human amylin receptor (amylin 3(a) …); assay: SPA competition with 125I-rat amylin on membranes of BHK cells with human calcitonin receptor and RAMP-3 (Assay V)
Outline: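 Membranes from BHK Amylin 3(a)/CRE-luc cells (35 ng/μL final) were mixed with SPA beads and test compounds in 50 mM Hepes pH 7.4 with 1 mM CaCl2, 5 mM MgCl₂, 0.1% OA and 0.02% Tween20. Incubation ran 120 min at 25° C with shaking; IC₅₀ came from one-site competition fitting.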

[3] = target: T1, human calcitonin receptor; assay: SPA competition with 125I-calcitonin on membranes of BHK cells with human calcitonin receptor (Assay VII)
Outline: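 BHK hCTR membranes 35 ng/μL + SPA beads 0.05 mg/well; buffer 50 mM Hepes pH 7.4, 1 mM CaCl2, 5 mM MgCl₂, 0.1% OA, 0.02% Tween20. 120 min, 25° C., shaking. Scintillation count; IC50 by one-site binding competition.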

Row | Binder | Ratio hCT/hAmylin binding [1] | IC50 [2] [nM] | IC50 [3] [nM]
1 | K([γGlu-γGlu-C20 diacid])CNTATCATQRLANFLRHSSPNFGAIPSSTPVGPRTY-NH2 (disulfide 2-7; N-terminus assumed; SMILES CC[C@H](C)[C@H](NC(=O)[C@H](C)NC(=O)CNC(=O)[C@H](Cc1ccccc1)NC(=O)[C@H](CC(N)=O)NC(=O)[C@@H]1CCCN1C(=O)[C@H](CO)NC(=O)[C@H](CO)NC(=O)[C@H](Cc1c[nH]cn1)NC(=O)[C@H](CCCNC(=N)N)NC(=O)[C@H](CC(C)C)NC(=O)[C@H](Cc1ccccc1)NC(=O)[C@H](CC(N)=O)NC(=O)[C@H](C)NC(=O)[C@H](CC(C)C)NC(=O)[C@H](CCCNC(=N)N)NC(=O)[C@H](CCC(N)=O)NC(=O)[C@@H](NC(=O)[C@H](C)NC(=O)[C@@H]1CSSC[C@H](NC(=O)[C@@H](N)CCCCNC(=O)CC[C@H](NC(=O)CC[C@H](NC(=O)CCCCCCCCCCCCCCCCCCC(=O)O)C(=O)O)C(=O)O)C(=O)N[C@@H](CC(N)=O)C(=O)N[C@@H]([C@@H](C)O)C(=O)N[C@@H](C)C(=O)N[C@@H]([C@@H](C)O)C(=O)N1)[C@@H](C)O)C(=O)N1CCC[C@H]1C(=O)N[C@@H](CO)C(=O)N[C@@H](CO)C(=O)N[C@H](C(=O)N1CCC[C@H]1C(=O)N[C@H](C(=O)NCC(=O)N1CCC[C@H]1C(=O)N[C@@H](CCCNC(=N)N)C(=O)N[C@H](C(=O)N[C@@H](Cc1ccc(O)cc1)C(N)=O)[C@@H](C)O)C(C)C)[C@@H](C)O) | 48.6 | 0.88 | 42.8
2 | K([γGlu-γGlu-C20 diacid])CNTATCATQRLADFLRHSSPNFGAIPSSTNVGPETY-NH2 (disulfide 2-7; N-terminus assumed; SMILES CC[C@H](C)[C@H](NC(=O)[C@H](C)NC(=O)CNC(=O)[C@H](Cc1ccccc1)NC(=O)[C@H](CC(N)=O)NC(=O)[C@@H]1CCCN1C(=O)[C@H](CO)NC(=O)[C@H](CO)NC(=O)[C@H](Cc1c[nH]cn1)NC(=O)[C@H](CCCNC(=N)N)NC(=O)[C@H](CC(C)C)NC(=O)[C@H](Cc1ccccc1)NC(=O)[C@H](CC(=O)O)NC(=O)[C@H](C)NC(=O)[C@H](CC(C)C)NC(=O)[C@H](CCCNC(=N)N)NC(=O)[C@H](CCC(N)=O)NC(=O)[C@@H](NC(=O)[C@H](C)NC(=O)[C@@H]1CSSC[C@H](NC(=O)[C@@H](N)CCCCNC(=O)CC[C@H](NC(=O)CC[C@H](NC(=O)CCCCCCCCCCCCCCCCCCC(=O)O)C(=O)O)C(=O)O)C(=O)N[C@@H](CC(N)=O)C(=O)N[C@@H]([C@@H](C)O)C(=O)N[C@@H](C)C(=O)N[C@@H]([C@@H](C)O)C(=O)N1)[C@@H](C)O)C(=O)N1CCC[C@H]1C(=O)N[C@@H](CO)C(=O)N[C@@H](CO)C(=O)N[C@H](C(=O)N[C@@H](CC(N)=O)C(=O)N[C@H](C(=O)NCC(=O)N1CCC[C@H]1C(=O)N[C@@H](CCC(=O)O)C(=O)N[C@H](C(=O)N[C@@H](Cc1ccc(O)cc1)C(N)=O)[C@@H](C)O)C(C)C)[C@@H](C)O) | 49.8 | 0.172 | 8.56
3 | K([γGlu-γGlu-C20 diacid])CNTATCATQRLAEFLRHSSPNFGAIPSSTNVGSRTY-NH2 (disulfide 2-7; N-terminus assumed; SMILES CC[C@H](C)[C@H](NC(=O)[C@H](C)NC(=O)CNC(=O)[C@H](Cc1ccccc1)NC(=O)[C@H](CC(N)=O)NC(=O)[C@@H]1CCCN1C(=O)[C@H](CO)NC(=O)[C@H](CO)NC(=O)[C@H](Cc1c[nH]cn1)NC(=O)[C@H](CCCNC(=N)N)NC(=O)[C@H](CC(C)C)NC(=O)[C@H](Cc1ccccc1)NC(=O)[C@H](CCC(=O)O)NC(=O)[C@H](C)NC(=O)[C@H](CC(C)C)NC(=O)[C@H](CCCNC(=N)N)NC(=O)[C@H](CCC(N)=O)NC(=O)[C@@H](NC(=O)[C@H](C)NC(=O)[C@@H]1CSSC[C@H](NC(=O)[C@@H](N)CCCCNC(=O)CC[C@H](NC(=O)CC[C@H](NC(=O)CCCCCCCCCCCCCCCCCCC(=O)O)C(=O)O)C(=O)O)C(=O)N[C@@H](CC(N)=O)C(=O)N[C@@H]([C@@H](C)O)C(=O)N[C@@H](C)C(=O)N[C@@H]([C@@H](C)O)C(=O)N1)[C@@H](C)O)C(=O)N1CCC[C@H]1C(=O)N[C@@H](CO)C(=O)N[C@@H](CO)C(=O)N[C@H](C(=O)N[C@@H](CC(N)=O)C(=O)N[C@H](C(=O)NCC(=O)N[C@@H](CO)C(=O)N[C@@H](CCCNC(=N)N)C(=O)N[C@H](C(=O)N[C@@H](Cc1ccc(O)cc1)C(N)=O)[C@@H](C)O)C(C)C)[C@@H](C)O, also called compound 89) | 28 | 1.16 | 32.5

Continued by falling IC50 [2], values first:

Row | Ratio hCT/hAmylin binding [1] | IC50 [2] [nM] | IC50 [3] [nM] | Binder
4 | 46.5 | 0.75 | 34.9 | K([γGlu-γGlu-C20 diacid])CNTATCATQRLAEFLRHSSPNFGAIPSSTNVGRNTY-NH2 (disulfide 2-7; N-terminus assumed; SMILES CC[C@H](C)[C@H](NC(=O)[C@H](C)NC(=O)CNC(=O)[C@H](Cc1ccccc1)NC(=O)[C@H](CC(N)=O)NC(=O)[C@@H]1CCCN1C(=O)[C@H](CO)NC(=O)[C@H](CO)NC(=O)[C@H](Cc1c[nH]cn1)NC(=O)[C@H](CCCNC(=N)N)NC(=O)[C@H](CC(C)C)NC(=O)[C@H](Cc1ccccc1)NC(=O)[C@H](CCC(=O)O)NC(=O)[C@H](C)NC(=O)[C@H](CC(C)C)NC(=O)[C@H](CCCNC(=N)N)NC(=O)[C@H](CCC(N)=O)NC(=O)[C@@H](NC(=O)[C@H](C)NC(=O)[C@@H]1CSSC[C@H](NC(=O)[C@@H](N)CCCCNC(=O)CC[C@H](NC(=O)CC[C@H](NC(=O)CCCCCCCCCCCCCCCCCCC(=O)O)C(=O)O)C(=O)O)C(=O)N[C@@H](CC(N)=O)C(=O)N[C@@H]([C@@H](C)O)C(=O)N[C@@H](C)C(=O)N[C@@H]([C@@H](C)O)C(=O)N1)[C@@H](C)O)C(=O)N1CCC[C@H]1C(=O)N[C@@H](CO)C(=O)N[C@@H](CO)C(=O)N[C@H](C(=O)N[C@@H](CC(N)=O)C(=O)N[C@H](C(=O)NCC(=O)N[C@@H](CCCNC(=N)N)C(=O)N[C@@H](CC(N)=O)C(=O)N[C@H](C(=O)N[C@@H](Cc1ccc(O)cc1)C(N)=O)[C@@H](C)O)C(C)C)[C@@H](C)O, also called compound 88)
5 | 280 | 0.453 | 127 | K([γGlu-γGlu-C20 diacid])CNTATCATQRLADFLRHSSPNFGAIPSSTNVGPRTY-NH2 (disulfide 2-7; N-terminus assumed; SMILES CC[C@H](C)[C@H](NC(=O)[C@H](C)NC(=O)CNC(=O)[C@H](Cc1ccccc1)NC(=O)[C@H](CC(N)=O)NC(=O)[C@@H]1CCCN1C(=O)[C@H](CO)NC(=O)[C@H](CO)NC(=O)[C@H](Cc1c[nH]cn1)NC(=O)[C@H](CCCNC(=N)N)NC(=O)[C@H](CC(C)C)NC(=O)[C@H](Cc1ccccc1)NC(=O)[C@H](CC(=O)O)NC(=O)[C@H](C)NC(=O)[C@H](CC(C)C)NC(=O)[C@H](CCCNC(=N)N)NC(=O)[C@H](CCC(N)=O)NC(=O)[C@@H](NC(=O)[C@H](C)NC(=O)[C@@H]1CSSC[C@H](NC(=O)[C@@H](N)CCCCNC(=O)CC[C@H](NC(=O)CC[C@H](NC(=O)CCCCCCCCCCCCCCCCCCC(=O)O)C(=O)O)C(=O)O)C(=O)N[C@@H](CC(N)=O)C(=O)N[C@@H]([C@@H](C)O)C(=O)N[C@@H](C)C(=O)N[C@@H]([C@@H](C)O)C(=O)N1)[C@@H](C)O)C(=O)N1CCC[C@H]1C(=O)N[C@@H](CO)C(=O)N[C@@H](CO)C(=O)N[C@H](C(=O)N[C@@H](CC(N)=O)C(=O)N[C@H](C(=O)NCC(=O)N1CCC[C@H]1C(=O)N[C@@H](CCCNC(=N)N)C(=O)N[C@H](C(=O)N[C@@H](Cc1ccc(O)cc1)C(N)=O)[C@@H](C)O)C(C)C)[C@@H](C)O, also called compound 130)
